T1: factor H binding protein (fHbp) variant 1.1, recombinant (Neisseria meningitidis MC58, fHbp v1.1)
T1 construct: also called fHbp v1.1; fHbp v1; source: E. coli BL21(DE3), purified (Ni-NTA, SEC when necessary); not shown: His6, C-terminal, kept
T1 chain: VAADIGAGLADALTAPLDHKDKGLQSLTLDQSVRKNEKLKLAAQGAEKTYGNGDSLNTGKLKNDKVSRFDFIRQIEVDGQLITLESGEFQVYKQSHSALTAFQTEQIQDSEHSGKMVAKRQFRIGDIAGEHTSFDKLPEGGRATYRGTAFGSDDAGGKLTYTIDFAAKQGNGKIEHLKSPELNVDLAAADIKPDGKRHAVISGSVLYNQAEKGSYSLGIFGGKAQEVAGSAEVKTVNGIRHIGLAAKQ


What was measured:
[1] = target: T1, factor H binding protein (fHbp) variant …; test: SPR; conditions: both partners purified
[2] = target: T2, factor H binding protein (fHbp) variant 2.16, recombinant (Neisseria meningitidis 961-5945, UniProt Q6VS19, strain); test: SPR; conditions: both partners purified
T2 construct: also called fHbp v2.16; fHbp v2; source: E. coli BL21(DE3), purified (Ni-NTA, SEC when necessary)

[3] = target: T3, factor H binding protein (fHbp) variant 3.28, recombinant (Neisseria meningitidis M1239, fHbp v3.28, UniProt Q19KF7, strain); test: SPR; conditions: both partners purified
T3 construct: also called fHbp v3.28; fHbp v3; source: E. coli BL21(DE3), purified (Ni-NTA, SEC when necessary)

[4] = target: T4, native fHbp v2.16 on live N. meningitidis strain UK104 (M08-240104) (Neisseria meningitidis, UniProt Q6VS19); test: flow cytometry on cells; live meningococci (MC58, UK104, UK320) in mid-log phase incubated with mAbs at 10 ug/ml; detected with FITC anti-human IgG; conditions: one partner purified
T4 construct: source: endogenous, on live N. meningitidis M08-240104 (UK104)

[5] = target: T4, native fHbp v2.16 on live N. …; test: flow cytometry on cells; conditions: one partner purified
[6] = target: T1, factor H binding protein (fHbp) variant …; test: BLI; Octet 384 Red, 30 C; mAb 4B3 captured on Anti-Human Fc biosensors, wild type and mutant fHbp in solution, 150 nM to 1 nM, in 1 x PBS, 1% (w/v) BSA; triplicate; conditions: both partners purified

Row | Binder | Kd [1] [nM] | Kd [2] [nM] | Kd [3] [nM] | binding result [4] | binding result [5] | Kd [6] [nM]
1 | human anti-fHbp mAb 2G1 (antibody, V domains shown, IgG1; source: Expi293, transient transfection, purified (protein G Sepharose)) VH: QVQLVESGGDLVKPGGSLRLSCVASGFTFSSYTMNWVRQAPGKGLEWVSSITSSSSFTYYADSVKGRFIISRDNAKNSLSLQMNNLRVEDTATYYCARRKDSSDYDWYYYYGMDVWGLGTTVTVSS VL: QSVLTQPPSVSAAPGQKVTISCSGSSSNIGDNYMSWYQQIPGTAPKLLIFDNDQRPSGIPDRFSASKSGTSATLDITGFQTGDEADYYCGTWDSGLSAPVFGGGTKLTVL | 1.08 | 1.7 | 1.75 |  |  | 
2 | human anti-fHbp mAb 5F12 (antibody, V domains shown, IgG1; source: Expi293, transient transfection, purified (protein G Sepharose)) VH: EVQLVESGGDLVKPGGSLRLSCAASGFTFSNYTMNWVRQAPGKGLEWVSSITSSSSFKYYADSVKGRFTISRDNAKNSVFLQMNSLRAEDTAIYYCARRIDSSDQDWFYYYGMDVWGLGTTVTVSS VL: QSVLTQPPSVSAAPGQRVTISCSGSSSNIGDNYISWYQQLPGTAPKLLIYDNDQRPSGTPDRFSASKSGTSATLGVTGLQTGDEADYYCGTWDSSLNAPVFGSGTKVTVL | 1.01 | 2.75 | 1.75 |  |  | 
3 | human anti-fHbp mAb 2C8 (antibody, V domains shown, IgG1; source: Expi293, transient transfection, purified (protein G Sepharose)) VH: QVQLVQSGAEVKKPGSSVKVSCKASGGTVINYPISWVRQVPGQGLEWMGRLVPLFGTPNYGQKFQGRITITADKSTSAAYMELIGLKSEDTAVYYCARGDTAMAPFDYWGHGTLVTVSS VL: QLVLTQPPSVSVAPGKTATITCGGNNVGGKTVHWYQQKPGQAPVLVMSYDSDRPSGIPERFSGSNSGNTATLTISRVEAEDEADYYCQVWHGNDDHWVFGGGTKLTVL | 0.34 | 0.0525 | 0.46 |  |  | 
4 | human anti-fHbp mAb 5C6 (antibody, V domains shown, IgG1; source: Expi293, transient transfection, purified (protein G Sepharose)) VH: EVQLLESGGGLVQPGGSLRLSCAASGFTFSSYAMSWVRQTPGKGLEWVSAISGSGGSTYYADSVQGRFTISRDNSKNTLYLQINSLRAEDTAVYYCAKDPGFVLSSGWYYFDYWGQGTLVTVSS VL: not shown | 1.08 | 1.7 | 2.03 | binds |  | 
5 | human anti-fHbp mAb 4F9 (antibody, V domains shown, IgG1; source: Expi293, transient transfection, purified (protein G Sepharose)) VH: QVQLVQSGGGLVKPGGSLRLSCAASGFPFSSYYMSWIRQAPGKGLEWVSDINNSGNVKEYADFVKGRLTISRDNVKNSMYLHMNSLRVEDTAVYYCARNRGRFDVWGQGTLVTVSA VL: EIVMTQSPGTLSLSPGETATLSCRASQMISSPFLAWYQQRRGQAPRLLIYGASTRATDTPDRFRGSGSGTDFILTISRLEPEDFAVYYCQHYDDSPFTFGQGTKLEIK | 0.077 | 0.0285 | 0.24 |  | binds | 
6 | human anti-fHbp mAb 4B3 (IgG1) (antibody, V domains shown, IgG1; source: Expi293, transient transfection, purified (protein G Sepharose)) VH: QVQLVQSGGGLVKPGGSLRLSCAASGFPFSSYYMSWIRQAPGKGLEWVSDINNSGNVKEYADFVKGRLTISRDNVKNSMYLHMNSLRVEDTAVYYCARNRGRFDVWGQGTLVTVSA VL: EIVMTQSPGTLSLSPGETATLSCRASQMISSPFLAWYQQRRGQAPRLLIYGASTRATDTPDRFRGSGSGTDFILTISRLEPEDFAVYYCQYYDDSPFTFGQGTKLEIK | 0.328 | 0.029 | 0.633 |  | binds | 1.7
7 | human anti-fHbp mAb 3G7 (antibody, V domains shown, IgG1; source: Expi293, transient transfection, purified (protein G Sepharose)) VH: EVQLLQSGGGLVKPGGSLRLSCAASGFPFSSYYMSWIRQAPGKGLEWVSDINNSGNVKEYADFVKGRLTISRDNVKNSMYLHMNSLRVEDTAVYYCARNRGRFDVWGQGTLVTVSA VL: EIVLTQSPGTLSLSPGETATLSCRASQMISSPFLAWYQQRRGQAPRLLIYGASTRATDTPDRFRGSGSGTDFILTISRLEPEDFAVYYCQYYDDSPFTFGQGTKLEIK | 0.344 | 0.0526 | 0.68 |  | binds | 
8 | human anti-fHbp mAb 1D1 (antibody, V domains shown, IgG1; source: Expi293, transient transfection, purified (protein G Sepharose)) VH: QVQLVGSGGGLVKPGGSLRLSCAASGFTFSSYTMNWVRQAPGKGLEWVSSISSSSGYIYYADSLKGRFTISRDDAKNSLFLQMNSLRAEDTAVYFCARDKVLPAPPGFYGLDVWGPGTTVTVSS VL: QSVVTQPPSVSAAPGQKVTISCSGSSSNIEDNFVSWYQQLPGTAPKLLIYDNNQRPSGIPDRFSGSKSGTSATLGITGLQTGDEADYYCATWDNSLSARVFGGGTKLTVL | 0.893 | 2.61 | 1.72 |  |  | 
9 | human anti-fHbp mAb 3F1 (antibody, V domains shown, IgG1; source: Expi293, transient transfection, purified (protein G Sepharose)) VH: EVHLVESGGGLVKPGGSLRLSCAASGFTFSSYTMNWVRQAPGKGLEWVSSISSSSGYIYYADSLKGRFTISRDNAKNSLFLQMNSLRAEDTAVYFCARDKVLPAPPGFYGLDVWGPGTTVTVSS VL: QSVVTQPPSVSAAPGQKVTISCSGSSSNIEDNFVSWYQQLPGTAPKLLIYDNNQRPSGIPDRFSGSKSGTSATLGITGLQTGDEADYYCATWDNSLSARVFGGGTKLTVL | 1.04 | 11.3 | 1.8 |  |  | 

Reference: paper PMC7556464, “4CMenB vaccine induces elite cross-protective human antibodies that compete with human factor H for binding to meningococcal fHbp” (PLoS Pathogens, 2020)
